What was measured:
[1] = target: Acinetobacter baumannii RNase E N-terminal catalytic domain (Acinetobacter baumannii); test: SEC
[2] = target: Acinetobacter baumannii RNase E N-terminal catalytic domain (Acinetobacter baumannii); test: SEC-SAXS; 5-10 mg/ml protein in 10 mM DTT, 10 mM MgCl2, 0.5 M NaCl, 20 mM Tris pH 8; KW403-4F size-exclusion column, B21 beamline (Diamond Light Source); molecular mass from I(0)
[3] = target: Francisella tularensis RNase E N-terminal catalytic domain (Francisella tularensis) (UniProt Q5NFK7); test: SEC
[4] = target: Francisella tularensis RNase E N-terminal catalytic domain (Francisella tularensis) (UniProt Q5NFK7); test: SEC-SAXS
[5] = target: Yersinia pestis RNase E N-terminal catalytic domain (Yersinia pestis); test: SEC
[6] = target: Yersinia pestis RNase E N-terminal catalytic domain (Yersinia pestis); test: SEC-SAXS

Substance: Acinetobacter baumannii RNase E N-terminal catalytic domain (domain or fragment)
- stoichiometry N [1]: 4
- stoichiometry N [2]: 4

Substance: Francisella tularensis RNase E N-terminal catalytic domain (from UniProt Q5NFK7 1-543) (domain or fragment)
- stoichiometry N [3]: 4
- stoichiometry N [4]: 4

Substance: Yersinia pestis RNase E N-terminal catalytic domain (from UniProt A0AAX2HZU4 1-529) (domain or fragment)
- stoichiometry N [5]: 4
- stoichiometry N [6]: 4

Source: paper PMC6538622
